Values quoted from earlier work as cited in publication PMC7425896, “Polypeptides derived from α-Synuclein binding partners to prevent α-Synuclein fibrils interaction with and take-up by cells” (PLoS ONE, 2020).

Biological target: α-Synuclein fibrils (Homo sapiens) (UniProt P37840)
Experiment: sedimentation assay

Kd: 100 nM
Substance: Hsc70 (from UniProt P11142)
